# Key:
# Assay type in all cases: in vivo, human
# [1] = Single-agent treatment of over 100 patients with MF3958×MF3178: tolerability and immunogenicity
# [2] = tested on: castration-resistant prostate cancer; experiment: Phase II clinical study of zenocutuzumab with an AR axis-targeting agent in mCRPC patients: tumor response (RECIST v1.1 / PCWG3)
# Excerpt: (§1) This is a Phase II, open-label, multicenter, international study designed to evaluate the efficacy of zenocutuzumab in patients with metastatic mCRPC with evidence of disease progression in accordance with Prostate Cancer Clinical Trials Working Group 3 (PCWG3) criteria on the last line of prior hormonal therapy that included either the second-generation AR antagonist enzalutamide or the androgen synthesis inhibitor abiraterone acetate. Patients will be enrolled and will receive zenocutuzumab in combination with the AR targeting agent on which they experienced disease progression immediately before study entry. A cohort of patients with […] and tensin homolog (PTEN) wild-type status will be enrolled. A safety run-in will be performed in the first 4 to 6 patients.
# (§2) Zenocutuzumab will be administered as a 2-hour IV infusion on Day 1, then Q2W of every 28-day cycle. A flat dose of 750 mg will be administered.
# (§3) Patients will receive zenocutuzumab in combination with one of the following next generation AR signaling inhibitors that the patient was receiving immediately prior to entering the study: • Abiraterone acetate (ZYTIGA®) 1000 mg PO QD in combination with prednisone 5 mg PO twice daily (BID). • Enzalutamide (XTANDIR) 160 mg PO QD.
# (§4) Eligible patients will be enrolled and will receive sequential treatment cycles, with a treatment cycle being 4 weeks (28 days). All patients will receive zenocutuzumab with a flat dose of 750 mg IV Q2W.
# Radiological measurement of tumors to assess antitumor effect of zenocutuzumab will be performed by CT scan or MRI. Imaging will be performed according to standard local practice and data will be collected in the electronic case report form. Imaging of all patients will be assessed by the local investigator.
# Whole body bone scintigraphy will be performed every 8 weeks for the first 12 months of treatment and every 12 weeks thereafter. Tumor assessments will be completed according to PCWG3-modified RECIST criteria.
# (§5) Following the clinical trial protocol of Example 2, mCRPC patients with histologically confirmed prostate adenocarcinoma were enrolled. Patients who were progressing on either abiraterone acetate or enzalutamide were continued on their backbone AR axis-targeting agents after study enrollment and received treatment with zenocutuzumab in combination. Sites of metastatic involvement included lymph nodes, bone, and/or visceral organs. PTEN status of tumors was established in patients by IHC when sufficient biological material was available, using Roche Ventana Optiview kit DAB and SP218 PTEN antibody using Benchmark Ultra immunohistochemical automated slide stainer. The OptiView DAB IHC Detection Kit (OptiView) is an indirect, biotin-free system for detecting mouse IgG, mouse IgM and rabbit primary antibodies. The kit is intended to identify targets by IHC in sections of formalin-fixed, paraffin-embedded and frozen tissue that are stained on the VENTANA automated slide stainers and visualized by light microscopy. The clinical interpretation of any staining, or the absence of staining, is complemented by morphological studies and evaluation of proper controls.
# [3] = Phase II clinical study of zenocutuzumab with an AR axis-targeting agent in mCRPC patients: safety; details: cohort of ten mCRPC patients
# Excerpt: as §1, §2, §3, §4, §5
# Among a cohort of ten patients treated, treatment-emergent adverse events (TEAE) related to study treatment classified as a Grade 3 TEAE or higher were not observed.
# [4] = Example 4: person with mCRPC, combination with enzalutamide, 6 months
# [5] = Example 5: person with mCRPC, PTEN loss, combination with abiraterone acetate/prednisone, 4 months
# [6] = zenocutuzumab in combination with abiraterone acetate or enzalutamide
substance,measurement,setting,value
"zenocutuzumab: Full length IgG1 bispecific antibody comprising MF3958×MF3178, targeting ERBB2 and ERBB3",risk for immunogenicity,[1],low risk for immunogenicity
same,tolerability as a single agent,[1],well tolerated
same,radiographic progression (lymph node),"[2]; Example 4: combination with enzalutamide, after six months of on-going treatment",no evidence of lymph node progression
same,best overall response by RECIST,[2]; [4],stable disease
same,response by bone scans by PCWG3,[2]; [4],no evidence of disease (NED)
same,radiographic progression (lymph node or bone),"[2]; Example 5: combination with abiraterone acetate/prednisone, after five months of on-going treatment",no evidence of lymph node or bone progression
same,best overall response by RECIST,[2]; [5],stable disease
same,response by bone scans by PCWG3,[2]; [5],stable disease
same,best overall response by measurement of target lesions (lymph nodes) under RECIST v1.1 per investigator,"[2]; Example 6: person with mCRPC, PTEN wildtype, combination with enzalutamide",stable disease
same,treatment-emergent adverse events (TEAE) related to study treatment classified as Grade 3 TEAE or higher,[3]; zenocutuzumab 750 mg IV Q2W in combination with abiraterone acetate or enzalutamide,not observed
same,infusion-related reactions (IRR) reported,[3]; [6],"a single IRR was reported (i.e. Grade 2, related)"
same,safety concerns,[3]; [6],no safety concerns
same,tolerability of the combination,[3]; [6],very well tolerated
same,treatment discontinuation due to an adverse event,[3]; [6],no treatment discontinuation
same,unexpected signals of toxicity,[3]; [6],nor were any unexpected signals of toxicity reported

# From patent publication US20260167740A1, “MEANS AND METHODS FOR TREATING CASTRATION-RESISTANT PROSTATE CANCER” (Merus N.V., priority 2022, published 2026)
